Results on two molecules are retold here after publication PMC11922746, “SPO11 dimers are sufficient to catalyse DNA double-strand breaks in vitro” (Nature, 2024).

One data set deals with T1, MBP-SPO11;TOP6BL (Mus musculus;Mus musculus, UniProt Q9WTK8;J3QMY9 1-396;1-579, |).
T1 sequence 1: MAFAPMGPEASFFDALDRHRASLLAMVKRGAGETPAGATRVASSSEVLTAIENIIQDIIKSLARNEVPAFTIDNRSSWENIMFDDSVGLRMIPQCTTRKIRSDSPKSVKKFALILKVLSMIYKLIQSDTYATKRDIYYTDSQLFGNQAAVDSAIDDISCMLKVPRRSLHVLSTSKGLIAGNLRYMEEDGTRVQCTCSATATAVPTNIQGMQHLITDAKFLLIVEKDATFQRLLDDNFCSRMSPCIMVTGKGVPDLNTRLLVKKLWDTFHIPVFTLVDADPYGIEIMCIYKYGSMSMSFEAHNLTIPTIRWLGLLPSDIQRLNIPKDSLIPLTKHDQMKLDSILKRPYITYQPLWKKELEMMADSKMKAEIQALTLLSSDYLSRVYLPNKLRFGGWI
T1 sequence 2: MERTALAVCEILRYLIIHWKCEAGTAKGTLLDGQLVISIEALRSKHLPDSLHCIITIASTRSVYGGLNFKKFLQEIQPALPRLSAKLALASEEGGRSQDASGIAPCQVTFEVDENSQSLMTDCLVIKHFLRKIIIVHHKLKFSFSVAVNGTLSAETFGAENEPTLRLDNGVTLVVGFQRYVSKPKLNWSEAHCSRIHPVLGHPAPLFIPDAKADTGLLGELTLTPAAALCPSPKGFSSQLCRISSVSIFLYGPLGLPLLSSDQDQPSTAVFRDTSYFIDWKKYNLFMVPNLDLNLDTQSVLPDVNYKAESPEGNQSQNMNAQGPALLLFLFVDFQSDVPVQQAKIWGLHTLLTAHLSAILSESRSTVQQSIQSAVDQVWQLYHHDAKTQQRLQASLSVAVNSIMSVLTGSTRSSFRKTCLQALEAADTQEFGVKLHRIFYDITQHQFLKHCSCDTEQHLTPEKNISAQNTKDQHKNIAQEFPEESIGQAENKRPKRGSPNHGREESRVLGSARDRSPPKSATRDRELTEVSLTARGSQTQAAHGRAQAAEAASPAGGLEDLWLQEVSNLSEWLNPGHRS
The experiment in a line: EMSA; 5 mM EDTA, 0.1 nM DNA; EMSA: 25 mM Tris-HCl pH 7.5, 7.5% glycerol, 50 mM NaCl, 2 mM DTT, 5 mM EDTA, 1 mg/ml BSA, 37 C, 30 min; 0.1 nM labelled hairpin or 100 ng plasmid in 20 µl. The following applies: protein: recombinant;recombinant; tags: MBP;His-Flag; copies: 1;1; label: 5' 32P; hairpin, 2-nt 5' overhang.

For data set [1], the target named is T2, MBP-tagged Mus musculus SPO11 (Mus musculus, UniProt Q9WTK8 1-396).
T2 construct: SPO11, Mus musculus; expected molecular mass of MBP–SPO11 87.4 kDa; active-site tyrosines Y137 and Y138; also called MBP–SPO11; mouse SPO11; source: baculovirus-infected Sf9 insect cells, purified (amylose, Superdex 200, cation exchange); for the complex co-expressed with TOP6BL and purified (Ni-NTA, amylose, Superdex 200); not shown: MBP, N-terminal, kept
T2 sequence (looked up): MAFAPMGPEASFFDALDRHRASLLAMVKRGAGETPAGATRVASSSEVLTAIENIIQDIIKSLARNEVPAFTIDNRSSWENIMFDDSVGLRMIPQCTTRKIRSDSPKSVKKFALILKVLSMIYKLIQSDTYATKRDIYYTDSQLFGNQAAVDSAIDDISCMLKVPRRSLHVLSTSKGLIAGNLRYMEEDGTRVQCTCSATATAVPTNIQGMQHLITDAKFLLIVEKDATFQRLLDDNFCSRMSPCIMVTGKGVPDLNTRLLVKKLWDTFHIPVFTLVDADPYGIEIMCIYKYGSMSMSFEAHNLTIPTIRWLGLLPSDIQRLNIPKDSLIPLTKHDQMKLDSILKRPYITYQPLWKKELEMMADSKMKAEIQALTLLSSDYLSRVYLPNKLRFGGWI
The data set is described as follows: SEC-MALS; co-expressed and co-purified MBP–SPO11 and His–Flag TOP6BL complex (Ni-NTA, amylose, Superdex 200); Superdex 200 increase 10/300 GL; 25 mM HEPES-NaOH pH 7.5, 500 mM NaCl, 10% glycerol, 5 mM EDTA, 2 mM DTT. Particulars: both partners purified.

In general, stoichiometry N refers to a count of units in the complex or per binding partner.

B1: cb957 hairpin, 25 bp, 2-nt 5' overhang (structured_DNA)
DNA: TAGCAATGTAATCGTCTATGACGTTAACGTCATAGACGATTACATTGC
Regarding B1, the binding result in the data set with MBP-SPO11;TOP6BL was “binds”.

B2: His–Flag-tagged Mus musculus TOP6BL (natural protein, UniProt J3QMY9 1-579, looked up)
chain: MERTALAVCEILRYLIIHWKCEAGTAKGTLLDGQLVISIEALRSKHLPDSLHCIITIASTRSVYGGLNFKKFLQEIQPALPRLSAKLALASEEGGRSQDASGIAPCQVTFEVDENSQSLMTDCLVIKHFLRKIIIVHHKLKFSFSVAVNGTLSAETFGAENEPTLRLDNGVTLVVGFQRYVSKPKLNWSEAHCSRIHPVLGHPAPLFIPDAKADTGLLGELTLTPAAALCPSPKGFSSQLCRISSVSIFLYGPLGLPLLSSDQDQPSTAVFRDTSYFIDWKKYNLFMVPNLDLNLDTQSVLPDVNYKAESPEGNQSQNMNAQGPALLLFLFVDFQSDVPVQQAKIWGLHTLLTAHLSAILSESRSTVQQSIQSAVDQVWQLYHHDAKTQQRLQASLSVAVNSIMSVLTGSTRSSFRKTCLQALEAADTQEFGVKLHRIFYDITQHQFLKHCSCDTEQHLTPEKNISAQNTKDQHKNIAQEFPEESIGQAENKRPKRGSPNHGREESRVLGSARDRSPPKSATRDRELTEVSLTARGSQTQAAHGRAQAAEAASPAGGLEDLWLQEVSNLSEWLNPGHRS
notes: TOP6BL (topo VIB-like subunit), Mus musculus; also called His–mTOP6BL–Flag; mTOP6BL; not shown: His, N-terminal, kept; Flag, C-terminal, kept
For the molecule B2, the “stoichiometry N” value in data set [1] stood at 1.
